Columns and labels:
IL-3 receptor (human) = IL-3 receptor (human) (UniProt P26951); test: cell-based or functional assay
IL-3 receptor [1] = biological target: T1, IL-3 receptor (human, UniProt P26951 19-378; P32927 17-897); test: receptor binding assay on cells
T1 construct: whole, on cells; also called ILK3 receptor

IL-3 receptor [2] = biological target: T1, IL-3 receptor; test: cell-based or functional assay
IL-3 receptor [3] = biological target: T1, IL-3 receptor; test: competition with radiolabeled hIL-3 for binding to cells, relative to reference IL-3
Experimental: (§1) An ILK3 receptor binding assay was performed with purified recombinant hIL-3 (see EPA 0390252) was radiolabeled with the Bolton-Hunter reagent (as described by Budel et al., Blood 74 (1989) 565–571). The specific activity was estimated at 80,000 cpm/ng of IL-3. As target, either donor leukocytes, patient AML cells, or MV4-11 (ATCC: CRL-9591) cells were used. Cells were washed in Hanks Balanced Salt solution and suspended in Alpha-MEM plus 1% BSA. Usually, 3–10×10⁶ cells were incubated with 200–300 pM of radiolabeled IL-3 and various concentrations of unlabeled mutant protein in a total volume of 200 µl for 1 hr at 37° C. Cell-bound labeled IL-3 was centrifuged for 10 min at 1000×g at 4° C. through a 0.5 ml cushion of bovine calf serum in an Eppendorf tube (Budel et al., 1989). The tubes were frozen in liquid nitrogen and the tips cut off for counting in a Packard gamma counter. Competition binding was determined relative to the reference preparation. […] Radiolabeled IL-3 binding to patient AML blasts is competed with unlabeled IL-3 protein (reference preparation). Due to the low number of receptors (less than 200) on the target cells, data for competition mostly varied by one order of magnitude.

IL-3 receptor [4] = biological target: T1, IL-3 receptor; test: competition with radiolabeled IL-3 for binding to cells; NC: No competition was observed for the particular mutein preparation
Experimental: as §1

IL-3 receptor [5] = biological target: T1, IL-3 receptor; test: competition with radiolabeled hIL-3 for binding to cells, relative to reference IL-3; done once
Experimental: as §1
[1]Deletion between amino acid numbers of mature human IL-3 is indicated. Substitutions of amino acids are indicated in single letter code. [2]Median specific biological activity is expressed relative to the reference IL-3 preparations. [3]Antagonistic potential is represented as relative receptor binding activity divided by relative biological activity. The range is presented between brackets. […] Muteins were diluted in medium and tested for biological activity. Receptor binding experiments were performed once. †Mutein protein concentration was too low for densitometric scanning and was estimated from gels and western blots. ¤Mutant proteins were expressed in Bacillus and lack a leader polypeptide sequence.

T1 sequence (P26951 19-378, chain 1 of 2): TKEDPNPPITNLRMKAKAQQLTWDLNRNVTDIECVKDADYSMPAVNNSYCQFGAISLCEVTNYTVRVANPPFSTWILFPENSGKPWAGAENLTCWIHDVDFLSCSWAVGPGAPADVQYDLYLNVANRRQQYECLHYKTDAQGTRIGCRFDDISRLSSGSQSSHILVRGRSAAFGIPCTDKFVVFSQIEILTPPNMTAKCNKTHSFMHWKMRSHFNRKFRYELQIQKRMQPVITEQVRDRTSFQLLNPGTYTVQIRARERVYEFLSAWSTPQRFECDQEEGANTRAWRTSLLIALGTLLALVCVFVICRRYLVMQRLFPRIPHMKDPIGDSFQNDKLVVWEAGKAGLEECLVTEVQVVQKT
T1 sequence (P32927 17-897, chain 2 of 2): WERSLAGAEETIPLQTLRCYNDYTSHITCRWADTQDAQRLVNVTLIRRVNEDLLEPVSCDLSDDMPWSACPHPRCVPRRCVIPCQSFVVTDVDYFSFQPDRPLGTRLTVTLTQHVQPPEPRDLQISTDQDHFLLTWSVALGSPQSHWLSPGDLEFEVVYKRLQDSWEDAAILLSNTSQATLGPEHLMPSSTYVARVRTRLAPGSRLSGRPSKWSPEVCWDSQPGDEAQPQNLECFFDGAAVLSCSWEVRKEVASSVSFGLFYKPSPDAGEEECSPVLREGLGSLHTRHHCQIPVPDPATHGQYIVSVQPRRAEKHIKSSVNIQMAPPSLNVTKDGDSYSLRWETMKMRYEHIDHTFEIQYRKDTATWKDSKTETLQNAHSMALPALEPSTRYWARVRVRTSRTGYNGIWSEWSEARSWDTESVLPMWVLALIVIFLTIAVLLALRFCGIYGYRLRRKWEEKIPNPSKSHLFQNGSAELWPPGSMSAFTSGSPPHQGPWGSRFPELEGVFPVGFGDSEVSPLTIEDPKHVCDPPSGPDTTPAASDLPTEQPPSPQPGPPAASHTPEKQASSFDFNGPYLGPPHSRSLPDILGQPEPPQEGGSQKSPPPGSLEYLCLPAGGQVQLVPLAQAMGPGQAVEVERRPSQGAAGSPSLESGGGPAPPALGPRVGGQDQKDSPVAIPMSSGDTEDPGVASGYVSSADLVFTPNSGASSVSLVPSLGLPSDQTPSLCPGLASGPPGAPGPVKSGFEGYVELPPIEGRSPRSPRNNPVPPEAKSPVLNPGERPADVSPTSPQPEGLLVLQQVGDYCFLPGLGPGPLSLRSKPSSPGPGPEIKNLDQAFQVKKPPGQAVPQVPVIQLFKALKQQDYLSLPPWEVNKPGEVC
IL-3 receptor (human), sequence (P26951 19-378, chain 1 of 2): as the sequence (P26951 19-378, chain 1 of 2) above
IL-3 receptor (human), sequence (P32927 17-897, chain 2 of 2, further chain): as the sequence (P32927 17-897, chain 2 of 2) above

| REL. SPEC. BIOLOGICAL ACTIVITY (DNA synthesis of AML193 cells) (IL-3 receptor [2]) | relative antagonistic potential (relative receptor binding activity / relative biological activity) (IL-3 receptor [5]) | Molecule | further results |
| --- | --- | --- | --- |
| – | – | hIL-3 substitution mutant 1489 (Arg94→Pro94) (from UniProt P08700 20-152) (ligand) | REL. SPEC. BIOLOGICAL ACTIVITY (DNA synthesis of AML193 cells) (relative to reference IL-3) (IL-3 receptor (human)): 0.0017 |
| – | – | hIL-3 C-terminal deletion mutant 1455 (lacking amino acids 130-133) (ligand) APMTQTTPLKTSWVNCSNMIDEIITHLKQPPLPLLDFNNLNGEDQDILMENNLRRPNLEAFNRAVKSLQNASAIESILKNLLPCLPLATAAPTRHPIHIKDGDWNEFRRKLTFYLKTLENAQAQQTTLS | binding activity retained (IL-3 receptor [1]): 100 percent |
| 0.4 relative to reference IL-3 | – | hIL-3 double deletion mutant 9329 (deletions 1-14/120-130) (ligand, not shown: heterologous N-terminal leader of the E. coli fusion, rebuilt with oligonucleotides 1424/1425) NCSNMIDEIITHLKQPPLPLLDFNNLNGEDQDILMENNLRRPNLEAFNRAVKSLQNASAIESILKNLLPCLPLATAAPTRHPIHIKDGDWNEFRRKLTFYLKTLEAIF | binding activity retained (IL-3 receptor [1]): 100 percent; relative antagonistic potential (relative receptor binding activity / relative biological activity) (IL-3 receptor [3]): 2 |
| 1.8e-05 relative to reference IL-3 | – | hIL-3 deletion mutant 821 (deletion 94-102) (ligand, not shown: heterologous N-terminal leader of the E. coli fusion (pGB/IL-336: 12 aa; pGB/IL-339: 15 aa)) APMTQTTPLKTSWVNCSNMIDEIITHLKQPPLPLLDFNNLNGEDQDILMENNLRRPNLEAFNRAVKSLQNASAIESILKNLLPCLPLATAAPTDWNEFRRKLTFYLKTLENAQAQQTTLSLAIF | binding result (IL-3 receptor [4]): no binding |
| 6.6e-05 relative to reference IL-3 | – | hIL-3 deletion mutant 938 (deletion 103-111) (ligand, not shown: heterologous N-terminal leader of the E. coli fusion (pGB/IL-336: 12 aa; pGB/IL-339: 15 aa)) APMTQTTPLKTSWVNCSNMIDEIITHLKQPPLPLLDFNNLNGEDQDILMENNLRRPNLEAFNRAVKSLQNASAIESILKNLLPCLPLATAAPTRHPIHIKDGTFYLKTLENAQAQQTTLSLAIF | binding result (IL-3 receptor [4]): no binding |
| 7.3e-05 relative to reference IL-3 | – | hIL-3 deletion mutant 934 (deletion 47-54) (ligand, not shown: heterologous N-terminal leader of the E. coli fusion (pGB/IL-336: 12 aa; pGB/IL-339: 15 aa)) APMTQTTPLKTSWVNCSNMIDEIITHLKQPPLPLLDFNNLNGEDQDRPNLEAFNRAVKSLQNASAIESILKNLLPCLPLATAAPTRHPIHIKDGDWNEFRRKLTFYLKTLENAQAQQTTLSLAIF | binding result (IL-3 receptor [4]): no binding |
| 0.0031 relative to reference IL-3 | 12 | hIL-3 substitution mutant 1480 (Asp36→Arg36) (ligand, also called 36D→R; not shown: heterologous N-terminal leader of the E. coli fusion (pGB/IL-336: 12 aa; pGB/IL-339: 15 aa)) APMTQTTPLKTSWVNCSNMIDEIITHLKQPPLPLLRFNNLNGEDQDILMENNLRRPNLEAFNRAVKSLQNASAIESILKNLLPCLPLATAAPTRHPIHIKDGDWNEFRRKLTFYLKTLENAQAQQTTLSLAIF | – |
| 0.00032 relative to reference IL-3 | 6 | hIL-3 substitution mutant 1491 (Glu106→Lys106) (ligand, also called 106E → K; not shown: heterologous N-terminal leader of the E. coli fusion (pGB/IL-336: 12 aa; pGB/IL-339: 15 aa)) APMTQTTPLKTSWVNCSNMIDEIITHLKQPPLPLLDFNNLNGEDQDILMENNLRRPNLEAFNRAVKSLQNASAIESILKNLLPCLPLATAAPTRHPIHIKDGDWNKFRRKLTFYLKTLENAQAQQTTLSLAIF | – |
| 0.0022 relative to reference IL-3 | 5 | hIL-3 substitution mutant 1490 (His98Lys100Asp101→Glu98Asp100Gln101) (ligand, also called 98HIKD → EIKQ; not shown: heterologous N-terminal leader of the E. coli fusion (pGB/IL-336: 12 aa; pGB/IL-339: 15 aa)) APMTQTTPLKTSWVNCSNMIDEIITHLKQPPLPLLDFNNLNGEDQDILMENNLRRPNLEAFNRAVKSLQNASAIESILKNLLPCLPLATAAPTRHPIEIDQGDWNEFRRKLTFYLKTLENAQAQQTTLSLAIF | – |
| 0.011 relative to reference IL-3 | 3 | hIL-3 substitution mutant 1485 (Glu59→Lys59) (ligand, also called 59E → K; not shown: heterologous N-terminal leader of the E. coli fusion (pGB/IL-336: 12 aa; pGB/IL-339: 15 aa)) APMTQTTPLKTSWVNCSNMIDEIITHLKQPPLPLLDFNNLNGEDQDILMENNLRRPNLKAFNRAVKSLQNASAIESILKNLLPCLPLATAAPTRHPIHIKDGDWNEFRRKLTFYLKTLENAQAQQTTLSLAIF | – |
| 0.015 relative to reference IL-3 | 3 | hIL-3 substitution mutant 1487A (Glu75→Gly75) (ligand, also called 75E → G; not shown: heterologous N-terminal leader of the E. coli fusion (pGB/IL-336: 12 aa; pGB/IL-339: 15 aa)) APMTQTTPLKTSWVNCSNMIDEIITHLKQPPLPLLDFNNLNGEDQDILMENNLRRPNLEAFNRAVKSLQNASAIGSILKNLLPCLPLATAAPTRHPIHIKDGDWNEFRRKLTFYLKTLENAQAQQTTLSLAIF | – |
| 0.0075 relative to reference IL-3 | 0.6 | hIL-3 substitution mutant 1482 (Asp46→Arg46) (ligand, also called 46D→R; not shown: heterologous N-terminal leader of the E. coli fusion (pGB/IL-336: 12 aa; pGB/IL-339: 15 aa)) APMTQTTPLKTSWVNCSNMIDEIITHLKQPPLPLLDFNNLNGEDQRILMENNLRRPNLEAFNRAVKSLQNASAIESILKNLLPCLPLATAAPTRHPIHIKDGDWNEFRRKLTFYLKTLENAQAQQTTLSLAIF | – |
| 0.0086 relative to reference IL-3 | 3 | hIL-3 substitution mutant 1487B (Glu75→Arg75) (ligand, also called 75E → R; not shown: heterologous N-terminal leader of the E. coli fusion (pGB/IL-336: 12 aa; pGB/IL-339: 15 aa)) APMTQTTPLKTSWVNCSNMIDEIITHLKQPPLPLLDFNNLNGEDQDILMENNLRRPNLEAFNRAVKSLQNASAIRSILKNLLPCLPLATAAPTRHPIHIKDGDWNEFRRKLTFYLKTLENAQAQQTTLSLAIF | – |
| 1.2e-05 relative to reference IL-3 | – | hIL-3 deletion mutant 935 (deletion 60-70) (ligand, not shown: heterologous N-terminal leader of the E. coli fusion (pGB/IL-336: 12 aa; pGB/IL-339: 15 aa)) APMTQTTPLKTSWVNCSNMIDEIITHLKQPPLPLLDFNNLNGEDQDILMENNLRRPNLEASAIESILKNLLPCLPLATAAPTRHPIHIKDGDWNEFRRKLTFYLKTLENAQAQQTTLSLAIF | binding result (IL-3 receptor [4]): no binding |
| 2.4e-05 relative to reference IL-3 | – | hIL-3 deletion mutant 813 (deletion 66-80) (ligand, also called 4813; not shown: heterologous N-terminal leader of the E. coli fusion (pGB/IL-336: 12 aa; pGB/IL-339: 15 aa)) APMTQTTPLKTSWVNCSNMIDEIITHLKQPPLPLLDFNNLNGEDQDILMENNLRRPNLEAFNRAVLLPCLPLATAAPTRHPIHIKDGDWNEFRRKLTFYLKTLENAQAQQTTLSLAIF | binding result (IL-3 receptor [4]): no binding |
| 2 relative to reference IL-3 | – | hIL-3 deletion mutant 939 (deletion 120-130) (ligand, not shown: heterologous N-terminal leader of the E. coli fusion (pGB/IL-336: 12 aa; pGB/IL-339: 15 aa)) APMTQTTPLKTSWVNCSNMIDEIITHLKQPPLPLLDFNNLNGEDQDILMENNLRRPNLEAFNRAVKSLQNASAIESILKNLLPCLPLATAAPTRHPIHIKDGDWNEFRRKLTFYLKTLEAIF | binding activity retained (IL-3 receptor [1]): 100 percent; relative antagonistic potential (relative receptor binding activity / relative biological activity) (IL-3 receptor [3]): 1.8 |
| 0.71 relative to reference IL-3 | – | hIL-3 deletion mutant 932 (deletion 1-14) (ligand, not shown: heterologous N-terminal leader of the E. coli fusion (pGB/IL-336: 12 aa; pGB/IL-339: 15 aa)) NCSNMIDEIITHLKQPPLPLLDFNNLNGEDQDILMENNLRRPNLEAFNRAVKSLQNASAIESILKNLLPCLPLATAAPTRHPIHIKDGDWNEFRRKLTFYLKTLENAQAQQTTLSLAIF | binding activity retained (IL-3 receptor [1]): 100 percent; relative antagonistic potential (relative receptor binding activity / relative biological activity) (IL-3 receptor [3]): 2.8 |
